Binding signal (fold indels vs WT) data for one sequence are collected here from patent US20230235304.

Numbering of substitutions follows the chain as printed.

Common to all, as to assay: cell_activity
Conditions in all cases: PAM 5'-GCTG-3'; HEK293T; averaged over AAVS1, VEGFA, EMX1 targets

Data set [1] deals with T1, CRISPR nuclease variant L580G,L385G L580G,L385G (synthetic construct).
T1 sequence: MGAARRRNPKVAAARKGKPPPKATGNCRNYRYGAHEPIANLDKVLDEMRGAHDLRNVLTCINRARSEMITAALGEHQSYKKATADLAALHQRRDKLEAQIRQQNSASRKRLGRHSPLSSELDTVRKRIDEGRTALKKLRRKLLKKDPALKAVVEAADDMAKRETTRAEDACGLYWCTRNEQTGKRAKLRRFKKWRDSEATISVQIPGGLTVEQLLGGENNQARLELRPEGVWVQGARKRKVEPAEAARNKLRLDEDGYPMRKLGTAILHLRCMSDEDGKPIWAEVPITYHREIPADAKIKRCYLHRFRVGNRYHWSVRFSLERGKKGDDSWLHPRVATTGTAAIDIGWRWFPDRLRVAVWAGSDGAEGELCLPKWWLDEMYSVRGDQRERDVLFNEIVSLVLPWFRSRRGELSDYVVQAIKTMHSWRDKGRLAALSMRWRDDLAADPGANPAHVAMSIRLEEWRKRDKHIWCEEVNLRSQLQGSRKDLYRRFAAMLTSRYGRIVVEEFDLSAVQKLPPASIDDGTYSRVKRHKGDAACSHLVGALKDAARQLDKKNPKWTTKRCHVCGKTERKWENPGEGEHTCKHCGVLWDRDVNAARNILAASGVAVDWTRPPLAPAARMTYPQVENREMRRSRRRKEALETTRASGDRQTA

Data set [2] deals with T2, CRISPR nuclease variant Q514G Q514G (synthetic construct).
T2 sequence: T1 sequence with G385L, Q514G, G580L

Data set [3] relates to T3, CRISPR nuclease variant S511R S511R (synthetic construct).
T3 sequence: T1 sequence with G385L, S511R, G580L

For data set [4], the system named is T4, CRISPR nuclease variant S78K,E198R,R354G S78K,E198R,R354G (synthetic construct).
T4 sequence: T1 sequence with S78K, E198R, R354G, G385L, G580L

“GGUCCCAUCGGAACGGGUUGUGGUUCCGACGGAGGGAUACAUUGGUGGGG / GGAGGGATACATTGGTGGGG / CCCCACCAATGTATCCCTCC [AAVS1 crRNA (Table 5) ; AAVS1 target (Table 5)]”: the binding signal (fold indels vs WT) in data set [1] is 3.9; in data set [2], 3.53; in data set [3] it was 3.71; in data set [4], 4.14.
